In a protein production outcome set (Wang et al. 2014):

Experiment: label from the status in PepcDB records

Row | Sequence | protein production
1 | MSKKQKPTGNTGRKNQIKGKYAERSRKNGFGKFCLILQVIMSAAFMGVLVLLDMLPLKYLALAALILFFLWCITFTTQAVRKKKGVTGKVYSILLIAVLAVGTYYIAKTNDMIAAITSGGSKVDKMVVAVLKDDPAETLEDASDYEFGVQFNTGAENMKAAVMDIQDQIGDISTTEYKSVQEQAEALISGEVDAIIYNQSYTELMENAVEGYNDQIRIIYKHEIETKFDFGGSAKDDSLTKKPFTVYISGIDTYGDDADDDRDSIRSDVNIIAVVNPTTHQILLITTPRDYYIPIPGISDGMNDKLTHAGTYGIDVSMETLGALYETDINYYVRLNFSSLIEIVDILGGVDVYSEYAFTTGWESGYEMEVQQGINHFDGKQALAFSRERHALEGGDNQRGKNQQAVITAMLKKVLSPTMLLKANSIINQVSQDVETNISQGQLNSLVKSQLKSGAKWTIQSVAASGTDGEDYCYSVPDMPLYVLYPDEEVVNSIVELANIVEEGGSLESGEALN | failed
2 | MSKPEFIARQGRKPTGWLGHIVARVMARETRPENDRALSFLDLADGDSLIDIGCGHGETLFQADRIVRLSGSVGVDFSEVMLKRARARNRDAVWDTRMAFHCADTAALPFPDKRFGKALSVHTIYFWPNPAAHLAEAFRVLRRGGRFLFCYRSTADRRAVEEFPDTVYRFPSVQEVEEKLKLVGFLGPETTTEDIKGRLTHWSIAEKPLEHHHHHH | not failed
3 | MSKRWLYSLQLIFFITLVFVLVTGCYSHPNQNIQSANSKPVTSECRIIKHPLGETCIPLHPQRIIAMDEDILEILVALDLKPIAVAINFDEWSSREKQLWQKAEGIDSIVIGNHGILNLEKMLLLKPDLILGLAESTDRKSYELFSQIAPTVTVDYAQTAWRDVLLRVGNIIGKTEQAQKLIAEFQQRIEKLRVIVKNKLGKTKISVVRVYNYFHKTIEFRSNFSFPGSLLVELGLSFPEKQNQIPTSPGFPFVFASLERLDLLDADVMFVTLDAGGEENFKKFQASPLWQKLKAVKNNCVYTVDSGYWIFGNIMSANAILDDLDKYLLQQCR | failed
4 | MSKSLGFKVSVSFVNIFALPFFFVLLYGSGFVGAKLGLPHSTPLSFLSLRFMAAGLILLIIAKLIGNQLPNWREAIHISVAGSLTVCLFSVGVFVSIDMGLSPAVSALIVALQPILVALFARKLVNEQLNLAQWFGLLFGFLGVIVVVIDSIETTSFSWVAIAMSVLALFGVTFGSLYQKRYCADMEIFYGGAIQSLVSGLICLALLPFFESFKVVWTGEFIISLVYMVVGVSLGALSLLYIMIQRGEVSRVASVFYLVPVSAAVSAYLLFGETIESTTLFGASIIALGIFLTNRKSQNNMVVSMNK | failed
5 | MSKSTAEIRQAFLDFFHSKGHQVVASSSLVPNNDPTLLFTNAGMNQFKDVFLGLDKRNYSRATTSQRCVRAGGKHNDLENVGYTARHHTFFEMLGNFSFGDYFKHDAIQFAWELLTGENWFALPKERLWVTVYETDDEAYEIWEKEVGIPRERIIRIGDNKGAPYASDNFWQMGDTGPCGPCTEIFYDHGDHIWGGPPGSPEEDGDRYIEIWNIVFMQFNRQADGTMEPLPKPSVDTGMGLERIAAVLQHVNSNYDIDLFRTLIEAVAKVTGATDLGNKSLRVIADHIRSCAFLVADGVLPSNENRGYVLRRIIRRAVRHGNMLGAKETFFYKLVGPLIEVMGSAGEELKRQQAQVEQVLKTEEEQFARTLERGLALLDEELAKLQGDTLDGETAFRLYDTYGFPVDLTADVCRERNIKVDEAGFEAAMEEQRRRAREASGFGADYNAMIRVDSASEFKGYDHLELNGKVTALFVDGKAVEAINAGQEAVVVLDQTPFYAESGGQVGDKGELKGAGFTFAVDDTQKYGQAIGHLGKLSAGALKVGDAVQADVDEARRARIRLNHSATHLMHAALRQVLGTHVAQKGSLVSDKVLRFDFSHNEAMKPSEIREVEDLVNAQIRRNLPIETNIMDLDAAKAKGAMALFGEKYDERVRVLSMGDFSTELCGGTHASRTGDIGLFRIISESGTAAGIRRIEAVTGEGAMATVHAQSDRLNDIAHLLKGDSQNLGDKVRAVLERTRQLEKELQQLKDQAAAQESANLSSKAVDLNGVKLLVSELAGIEPKMLRTMVDDLKNQLGSTVIVLATVVEGKVSLIAGVSKDVTDRVKAGELIGMVAQQVGGKGGGRPDMAQAGGTDAAALPAALASVQGWVSAKLQ | failed
6 | MSKTANFLSLRSNPLPPIFSSTGNSPFLRASSALNLPTTASKPFHSWIRASSRRRLVLGGFGGASLWMNNNMSGKFGGKSFIASARQTNPSPVEQALNKVDWPETFPFKEEDFQRYDESSDSTFYEAPRFVTHIDDPAIAALTKYYSKVLPQSDTPGVSILDMCSSWVSHYPPGYRQERIVGMGMNEEELKRNPVLTEYIVQDLNLNSNLPFEDNSFQVITNVVSVDYLTKPLEVFKEMNRILKPGGLALMSFSNRCFFTKAISIWTSTGDADHALIVGSYFHYAGGFEAPQAVDISPNPGRSDPMYVVYSRKLPMV | failed
7 | MSKTVVLPQSDSPSVVASVSFWQAFRFWLKLGFISFGGPAGQIAMMHQELVDNRRWISEGRFLHALNFCMVLPGPEAQQLATYIGWLMHKTWGGVIAGVLFILPSLVLLIALAWIYLVWGDVAVVAGIFYGIKPAVAAIVLQAAHRIGSRALKNGAYWAIAAAAFVAIFALNVPFPLIVLAAALVGFIGGRLAPTIFGRADAHHAQSHPGGAAIIDDTTPIPAHAIFSWRRTSQVLIAGMLLWLVPMAALTLMLGWAHPLTQMSWFFTKAALMTFGGAYAVLPYVYQGAVTHYGWLTAGQMMDGLALGESTPGPLIMVVTFVGFVGGYTKAVLGVDDVLLGGIAAACLVTWFTFLPSFIFILAGGPFIETTHNKVGFTAPLTAITAAVVGVILNLALFFIWHSVWGPSGFDPWSAAIALGAAGLLFRYKWKLTWVLATAAAVGLIVHMAGLSGAG | failed
8 | MSKVIYKISIDLGGIVKRNFEKETKNCGKVNEEVLFKILKSNDKSEIGIKFKFKDIKSIRQFKDSVPITEYKDYEKYINRMADGEGNVLMSEKVEYFGHTSGTTGKQKLVPCTKNSRRRASKYMALLVNRFCYDNFKENWNYARGMMIADIVMTTYTKGKIPICSATSGGMKGIKHLLPYLYTSPIEVMEIKDKETALYLHLLFGLEEEELLYISGVFISNILDLFRTLEKNNKALVRDIQKGSISEELNIDEGLRKVLNKKLKPNNKRAMELEKEFKKGFKGIAKRIWPNLLYIASVTGANFSIYNDKVYYYIDSIPIYSAAYGSTEAMIGINPYASKVLYVITPSAVFYEFIPIGEKGEESFDTLLLSELKLGGRYEVVITNYAGLYRYKIGDVVKVVGFYNKCPEIEFLYRKNQVLNMAAEKTNEEHLTYAIKNTIKKLNLDLVDYTTEPDNSITPGRYIFYFEFRNNMYGFSTEKLQNILDDELRVSNLAYNRARNNKKLGMLKVEVLAPNTFDLIKEALFNKGISKNQIKIPRVIINNKIVMDIINRNKIKFVKKSVI | failed
9 | MSKVKIELFTSPMCPHCPAAKRVVEEVANEMPDAVEVEYINVMENPQKAMEYGIMAVPTIVINGDVEFIGAPTKEALVEAIKKRL | not failed
10 | MSKVNEITRESWILSTFPEWGTWLNEEIEQTVVEPNTFSMWWLGCTGIWLKSAGNTNLSIDFWCGTGKKTQKNRLMNTQHQMMRMGGVEALQPNLRTSIFPLDPFAIKEIDAVLASHDHADHIDVNVAAAVLQNCGEHVKFIGPQACVDLWLGWGVPQERCIVAKVGDVLEIGDVKIRVLDSFDRTALVTLPKGVSSYDKAILDGMDERAVNYLIETSGGSVYHSGDSHYSNYYAKHGNDYQIDVALLSYGENPRGVTDKMTSSDVLRAAESLDCQVVVPFHHDIWANFQNDPREIEVLWNMKKDRLQYQFAPFFWQVGGKYTYPTDKGRMHYQHFRGFQDIFKNEPELPYKAFL | not failed
11 | MSLAHKFDPSKIKKLDDPSRLELFDPEKVLKEFGLKEGMTVLDVGTGAGFYLPYLSKMVGEKGKVYAIDVQEEMVNYAWEKVNKLGLKNVEVLKSEENKIPLPDNTVDFIFMAFTFHELSEPLKFLEELKRVAKPFAYLAIIDWKKEERDKGPPPEEVYSEWEVGLILEDAGIRVGRVVEVGKYCFGVYAMIVKQEEENPLMNVPFKIPPGEGHHHHHH | not failed
12 | MSLAHPPRLNDDKPVIWTVSVTRLFELFRDISLEFDHLANITPIQLGFEKAVTYIRKKLANERCDAIIAAGSNGAYLKSRLSVPVILIKPSGYDVLQELAKAGKLTSSIGVVTYQETIPALVAFQKTFNLRLDQRSYITEEDARGQINELKANGTEAVVGAGLITDLAEEAGMTGIFIYSAATVRQAFSDALDMTRMSLRHNTHDATRNALRTRYVLEGHHHHHH | not failed
